A word on the Kd: it is a measure of binding affinity in units of concentration. The low end stands for tighter binding, the high end for weaker binding.

Changes are numbered by the printed parent chain.

Data on one molecule can be found in patent US20210040194A1 (AstraZeneca / MedImmune, published 2021).

The target of assay [1] is T1, Human ANG-2 (huAng2) (human, UniProt O15123 19-496, limits assumed).
T1 construct: also called human Ang2-biotin
T1 sequence (looked up): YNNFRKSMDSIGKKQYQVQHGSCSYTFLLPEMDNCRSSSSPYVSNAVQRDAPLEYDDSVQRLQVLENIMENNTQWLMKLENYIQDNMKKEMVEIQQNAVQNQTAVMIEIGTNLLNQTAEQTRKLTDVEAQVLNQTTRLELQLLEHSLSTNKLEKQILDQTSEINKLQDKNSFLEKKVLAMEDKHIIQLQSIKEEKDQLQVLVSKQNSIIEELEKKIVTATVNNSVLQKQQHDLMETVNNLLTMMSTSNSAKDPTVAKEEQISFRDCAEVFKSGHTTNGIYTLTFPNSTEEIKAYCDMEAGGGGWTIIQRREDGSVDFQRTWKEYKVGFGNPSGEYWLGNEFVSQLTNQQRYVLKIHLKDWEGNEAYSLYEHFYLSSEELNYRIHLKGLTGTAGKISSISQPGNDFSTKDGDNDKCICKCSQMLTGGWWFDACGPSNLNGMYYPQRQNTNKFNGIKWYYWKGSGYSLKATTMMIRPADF
The assay can be described thus: KinExA equilibrium, alternate model (ref [IgG]).
Experimental: (§1) Human ANG-2 (huAng2) protein was coated onto UltraLink® Biosupport beads (PIERCE, Rockford, Ill.) at concentrations of 5 mg/mL and 30 mg/mL in coating buffer (50 mM sodium carbonate buffer, pH 9). Coated beads were then separated (gentle pulse spin) from unreacted huAng2 protein solution, and blocked with 1M Tris, pH 8, containing BSA at 10 mg/mL) for approximately 15 minutes at room temperature. After this, the bead slurry was spun to remove the blocking solution, and then the block step was repeated for approximately 2 hours using fresh block buffer, and stored at 4° C. until used. Prior to use, the huAng2-coated beads were transferred to a bead vial, resuspended in approximately 27 mLs of instrument buffer (HBS-P buffer, pH 7.4; contains 10 mM HEPES, 0.15M NaCl, 0.005% P20+0.02% NaN3), and affixed to the KinExA instrument. […] These concentrations of bispecific antibody were chosen to allow measurements to be made under both receptor- and KD-controlled conditions, which would allow for more rigorous estimations of reagent activity and affinity, respectively. Two-fold serial dilutions of huAng2 protein were then titrated across nine of the tubes containing the bispecific solutions, followed by 10-fold-dilutions across two more tubes, leaving one tube as the bispecific-only, “zero” control. […]

For assay [2], the target named is T1, Human ANG-2 (huAng2). The assay is described as follows: cell-based or functional assay.
The target of the next assay is T2, cyno Ang2 (cyno, UniProt A0A2K5VNX6 19-496).
T2 sequence: T1 sequence (looked up) with E258G, I279V, F284L, I291V, G410A, A468G, D477G
The assay is described as follows: cell-based or functional assay.

The next assay addresses T3, mouse Ang2 (mouse, UniProt O35608 19-496, limits assumed).
T3 sequence (looked up): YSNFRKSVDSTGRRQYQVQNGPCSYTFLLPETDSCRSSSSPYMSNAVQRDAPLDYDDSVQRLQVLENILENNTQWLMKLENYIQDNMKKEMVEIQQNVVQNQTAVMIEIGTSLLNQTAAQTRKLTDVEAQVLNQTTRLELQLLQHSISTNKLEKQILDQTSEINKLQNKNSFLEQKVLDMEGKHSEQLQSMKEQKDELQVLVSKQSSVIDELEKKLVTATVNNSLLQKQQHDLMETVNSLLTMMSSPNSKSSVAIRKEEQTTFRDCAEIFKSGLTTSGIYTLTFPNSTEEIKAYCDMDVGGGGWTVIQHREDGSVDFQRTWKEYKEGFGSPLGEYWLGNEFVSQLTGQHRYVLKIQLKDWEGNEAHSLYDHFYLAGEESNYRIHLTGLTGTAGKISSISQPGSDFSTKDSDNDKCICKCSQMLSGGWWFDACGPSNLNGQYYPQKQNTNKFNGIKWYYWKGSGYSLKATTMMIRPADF
The assay can be described thus: cell-based or functional assay.

For assay [3], the target named is T1, Human ANG-2 (huAng2). The assay can be described thus: KinExA equilibrium, standard affinity model (ref [Ligand]). A general note: A kinetic exclusion assay measures how much of one partner remains free in solution.
Experimental: as §1

B1: BiS3Ab-VEGF H1RK-ANG-2 (bispecific antibody, human IgG1, kappa)
heavy: not shown
light: EIVLTQSPATLSLSPGERATLSCRASQSVHSSYLAWYQQKPGQAPRLLIYGASSRATGIPDRFSGSGSGTDFTLTISRLEPEDFAVYYCQQSYRTPSFGQGTRLEIKRTVAAPSVFIFPPSDEQLKSGTASVVCLLNNFYPREAKVQWKVDNALQSGNSQESVTEQDSKDSTYSLSSTLTLSKADYEKHKVYACEVTHQGLSSPVTKSFNRGEC
notes: Full-length IgG (Fab arm anti-VEGF-A) with an anti-ANG-2 scFv linked to the C-terminus of each heavy chain (BiS3 format); also called BiSAb-VEGF H1RK-ANG-2; Bs3Ab-VEGF-Ang2
As for B1, the Kd with Human ANG-2 (huAng2) [1] is 0.00435 nM; with Human ANG-2 (huAng2) [3] it was 0.0233 nM. Moreover, in the assay with Human ANG-2 (huAng2) [2], the “Hu pTie2 EC50 (nM), Hek293-Tie2 cells” value amounted to 2.29 nM. The “Cyno pTie2 EC50 (nM)” value with cyno Ang2 came out at 3.47 nM. Moreover, the “Mu pTie2 EC50 (nM)” value in the assay with mouse Ang2 stood at 12.2 nM.
